Assay results taken from patent US20160009782A1 (Stanford University, published 2016).
One block for each binder: values may come before it.

Legend:
[1] = molecular target: T1, oligomerized synthetic human Aβ1-42 peptide (oligo-Aβ42) (human, N-terminal biotin (biotinylated peptide used in the cell, neuron and streptavidin pull-down assays)); test: oligo-Aβ42 on transfected HEK293 cells, fluorescence, control-vector cells subtracted
T1 construct: Soluble oligomer mixture, mainly high-n oligomers; About 10-20% stays as monomer or low-n oligomer; Concentrations are monomer equivalents of total peptide; this is probably a misprint, since the peptide used was bought as human Aβ1-42; Both biotinylated and non-biotinylated peptides were obtained; also called Aβ42 oligomers; oligomerized Aβ42
Description: (§1) Bottom: bar graphs of average band intensities±SEM from experiments such as that shown in FIG. 10C (n=3; see also FIG. 2H). […] Top, right: Western blot with anti-Aβ antibodies specific for oligomeric forms (OMAB; see FIG. 10D); Bottom, left: quantification of Aβ42 binding. Normalized average band intensities±SEM (n=3).
(§2) The bound Aβ peptides were visualized with streptavidin-Alexa fluorophore conjugates (Alexa 488, 598 or 647; wavelength choice depending on experiments) (J. Lauren, et al. (2009) “Cellular prion protein mediates impairment of synaptic plasticity by amyloid-beta oligomers.” Nature 457, 1128). […] Fluorescent images were captured with fixed illumination and exposure time using a Nikon 20× objective of numerical aperture 0.75, and then fluorescence intensity was quantified using ImageJ software (NIH). In each experiment, values from control vector transfected cells were used as background, and subtracted from those of experimental cells.

[2] = molecular target: T1, oligomerized synthetic human Aβ1-42 …; test: synthetic Aβ42 oligomers immunoprecipitated with PirB-Fc proteins, Western blot α-Aβ (6E10), fully reduced
[3] = molecular target: T1, oligomerized synthetic human Aβ1-42 …; test: oligomerized Aβ42 immunoprecipitated with soluble Fc fusion protein, Western blot α-Aβ (4G8) and α-oligo Aβ (OMAB)
Description: as §1, with “Mean±SEM. […] Bottom:” for “Bottom:”
The Aβ signals were quantified as described above.

[4] = molecular target: T1, oligomerized synthetic human Aβ1-42 …; test: Aβ42 oligomers on transfected HEK293 cells, fluorescence staining
Description: as §2

[5] = molecular target: T1, oligomerized synthetic human Aβ1-42 …; test: Aβ42 oligomers pulled down with purified Fc fusion protein, Western blot for Aβ, normalised band intensity (n=3)
Description: as §1, with “Data are mean±SEM (n=5). […] Mean±SEM. […] Bottom:” for “Bottom:”

binding result [1]: no binding (tested: 200 nM)
B1: human killer immune receptor Kir (3DL1) expressed in HEK293 cells (receptor, UniProt P43629 22-444, looked up)
chain: HMGGQDKPFLSAWPSAVVPRGGHVTLRCHYRHRFNNFMLYKEDRIHIPIFHGRIFQESFNMSPVTTAHAGNYTCRGSHPHSPTGWSAPSNPVVIMVTGNHRKPSLLAHPGPLVKSGERVILQCWSDIMFEHFFLHKEGISKDPSRLVGQIHDGVSKANFSIGPMMLALAGTYRCYGSVTHTPYQLSAPSDPLDIVVTGPYEKPSLSAQPGPKVQAGESVTLSCSSRSSYDMYHLSREGGAHERRLPAVRKVNRTFQADFPLGPATHGGTYRCFGSFRHSPYEWSDPSDPLLVSVTGNPSSSWPSPTEPSSKSGNPRHLHILIGTSVVIILFILLLFFLLHLWCSNKKNAAVMDQEPAGNRTANSEDSDEQDPEEVTYAQLDHCVFTQRKITRPSQRPKTPPTDTILYTELPNAKPRSKVVSCP
notes: whole, on cells

binding result [2]: no binding
B2: D3D6 (PirB-Fc) (Fc fusion)
chain: GNLQKPTIKAEPGSVITSKRAMTIWCQGNLDAEVYFLHNEKSQKTQSTQTLQEPGNKGKFFIPSVTLQHAGQYRCYCYGSAGWSQPSDTLELVVTGIYEYYEPRLSVLPSPVVTAGGNMTLHCASDFPYDKFILTKEDKKFGNSLDTEHISSSGQYRALFIIGPTTPTHTGAFRCYGYYKNAPQLWSVPSALQQILISGLSKKPSLLTHQGHILDPGMTLTLQCFSDINYDRFALHKVGGADIMQHSSQQTDTGFSVANFTLGYVSSSTGGQYRCYGAHNLSSEWSASSEPLDILITGQLPLTPSLSVQPNHTVHSGETVSLLCWSMDSVDTFILSKEGSAQQPLRLKSKSHDQQSQAEFSMSAVTSHLSGTYRCYGAQDSSFYLLSSASAPVELTVSGPIETSTPPPTMSMPLGGLHMYLKA
modifications: Fc-mediated homodimer; one chain given
notes: not in the list MOLECULES; also called PirB (D3D6)-Fc; PirB:221-643 (D3D6); not shown: human IgG1-Fc of vector pFUSE-hIgG1e3-Fc2 (InvivoGen) and the cloning-junction residues

binding result [3]: no binding
B3: PirB (D5D6)-Fc, PirB residues 419-643 fused to human IgG1-Fc (Fc fusion)
chain: GLSKKPSLLTHQGHILDPGMTLTLQCFSDINYDRFALHKVGGADIMQHSSQQTDTGFSVANFTLGYVSSSTGGQYRCYGAHNLSSEWSASSEPLDILITGQLPLTPSLSVQPNHTVHSGETVSLLCWSMDSVDTFILSKEGSAQQPLRLKSKSHDQQSQAEFSMSAVTSHLSGTYRCYGAQDSSFYLLSSASAPVELTVSGPIETSTPPPTMSMPLGGLHMYLKA
notes: Used as the negative control in the pull-down assays; not shown: human IgG1-Fc from the pFUSE-hIgG1e3-Fc2 vector (InvivoGen); exact limits, linker and any engineered changes are not sta

binding result [4]: no binding (tested: 200 nM)
B4: human LilrB1 expressed in HEK293 cells (receptor, UniProt Q8NHL6 24-650, looked up)
chain: GHLPKPTLWAEPGSVITQGSPVTLRCQGGQETQEYRLYREKKTALWITRIPQELVKKGQFPIPSITWEHAGRYRCYYGSDTAGRSESSDPLELVVTGAYIKPTLSAQPSPVVNSGGNVILQCDSQVAFDGFSLCKEGEDEHPQCLNSQPHARGSSRAIFSVGPVSPSRRWWYRCYAYDSNSPYEWSLPSDLLELLVLGVSKKPSLSVQPGPIVAPEETLTLQCGSDAGYNRFVLYKDGERDFLQLAGAQPQAGLSQANFTLGPVSRSYGGQYRCYGAHNLSSEWSAPSDPLDILIAGQFYDRVSLSVQPGPTVASGENVTLLCQSQGWMQTFLLTKEGAADDPWRLRSTYQSQKYQAEFPMGPVTSAHAGTYRCYGSQSSKPYLLTHPSDPLELVVSGPSGGPSSPTTGPTSTSGPEDQPLTPTGSDPQSGLGRHLGVVIGILVAVILLLLLLLLLFLILRHRRQGKHWTSTQRKADFQHPAGAVGPEPTDRGLQWRSSPAADAQEENLYAAVKHTQPEDGVEMDTRSPHDEDPQAVTYAEVKHSRPRREMASPPSPLSGEFLDTKDRQAEEDRQMDTEAAASEAPQDVTYAQLHSLTLRREATEPPPSQEGPSPAVPSIYATLAIH
notes: whole, on cells; not shown: C-terminal Myc tag

binding result [5]: no binding
B5: LilrB2 (D3D4)-Fc, LilrB2 residues 219-458 fused to human IgG1-Fc (Fc fusion)
chain: PGVSKKPSLSVQPGPVVAPGESLTLQCVSDVGYDRFVLYKEGERDLRQLPGRQPQAGLSQANFTLGPVSRSYGGQYRCYGAHNLSSECSAPSDPLDILITGQIRGTPFISVQPGPTVASGENVTLLCQSWRQFHTFLLTKAGAADAPLRLRSIHEYPKYQAEFPMSPVTSAHAGTYRCYGSLNSDPYLLSHPSEPLELVVSGPSMGSSPPPTGPISTPAGPEDQPLTPTGSDPQSGLGRH
notes: not shown: human IgG1-Fc from the pFUSE-hIgG1e3-Fc2 vector (InvivoGen); exact limits, linker and any engineered changes are not sta
